Results: patent publication US20240261446A1 (UNIVERSIT DE LI GE, published 2024)

Assays:
[1] = molecular target: T1, recombinant biotinylated CD38 (human, UniProt P28907 43-300, biotinylated (sites not given)); test: BLI
T1 construct: also called biotinylated CD38 antigen; biotin-labelled recombinant CD38 protein
T1 sequence: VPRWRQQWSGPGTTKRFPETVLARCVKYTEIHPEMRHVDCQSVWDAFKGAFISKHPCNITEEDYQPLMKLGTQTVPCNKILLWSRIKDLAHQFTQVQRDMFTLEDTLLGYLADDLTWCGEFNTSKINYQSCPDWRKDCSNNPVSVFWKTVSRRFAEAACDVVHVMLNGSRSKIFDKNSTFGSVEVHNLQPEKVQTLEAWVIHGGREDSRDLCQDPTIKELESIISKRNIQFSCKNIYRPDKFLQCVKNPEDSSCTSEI

[2] = molecular target: T1, recombinant biotinylated CD38; test: BLI, biotinylated CD38 on streptavidin sensors, 1:1 model
[3] = molecular target: T1, recombinant biotinylated CD38; test: biolayer interferometry; biotinylated CD38 on streptavidin sensors; 1:1 binding model
Method: Next, the ability of the anti-CD38 nanobodies to recognise the biotinylated CD38 antigen was investigated by Biolayer Interferometry (BLI) that allows determination of the binding kinetics parameters. The binding affinities were estimated by testing different concentrations (seven) of nanobodies with BLI. These experiments were realised in a 96-well plate and consisted of different steps. First, recombinant and biotinylated CD38 (10 μg/mL) was loaded on the surface of streptavidin-coupled sensors and washed using a PBS-based buffer (PBS 50 mM pH 7, BSA 0.1%, Tween 0.02%) in order to remove any unbound CD38. Then, biocytin was added to saturate the sensors and to avoid non-specific interactions during the subsequent association step. Afterwards, the nanobodies were diluted at concentrations and brought in contact with the CD38 coated sensors to monitor the association of the nanobodies to the receptors. […] Octet Data Analysis software version 8.0 was used for curve fitting and the determination of the binding parameters, including the KD, using a 1:1 binding model.

[4] = molecular target: T1, recombinant biotinylated CD38; test: BLI, immobilised CD38 on SA sensors, OctetHTX, conjugate 100 to 20 nM
Method: Values are from a serial dilution of conjugate from 100 to 20 nM.

[5] = molecular target: T2, human CD38 receptor expressed on cells (RPMI-8226 and other CD38+ cell lines) (human, UniProt P28907 1-300); test: saturation binding of the radiolabelled nanobody on CD38+ RPMI-8226 cells, 1 hour at 4 °C
T2 construct: Endogenous CD38 of human myeloma and lymphoma cell lines; also called CD38^+ RPMI-8226 cells
T2 sequence: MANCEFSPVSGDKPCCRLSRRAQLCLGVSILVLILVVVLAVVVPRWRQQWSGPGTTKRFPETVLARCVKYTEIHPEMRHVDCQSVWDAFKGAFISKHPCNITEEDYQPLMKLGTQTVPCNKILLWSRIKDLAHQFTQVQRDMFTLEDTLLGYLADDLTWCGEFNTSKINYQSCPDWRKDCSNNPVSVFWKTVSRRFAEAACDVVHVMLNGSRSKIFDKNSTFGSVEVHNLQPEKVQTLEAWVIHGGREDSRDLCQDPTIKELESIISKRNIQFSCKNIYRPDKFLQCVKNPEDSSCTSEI

[6] = molecular target: T1, recombinant biotinylated CD38; test: BLI, biotinylated CD38 on streptavidin sensors, 10 to 150 nM conjugate, 1:1 model
Method: First, recombinant and biotinylated CD38 (1 μg/mL) was loaded on the surface of streptavidin-coupled sensors and washed using a PBS-based buffer in order to remove any unbound CD38. Then, biocytin was added to saturate the sensors and to avoid non-specific interactions during the subsequent association step. Afterwards, the nanobodies-PNA1 were diluted at concentrations and brought in contact with the CD38 coated sensors to monitor the association of the nanobodies to the receptors. Finally, the sensors were placed in a fresh buffer in order to measure the dissociation rate of the nanobodies-PNA1 from the receptors. Octet Data Analysis software version 8.0 was used for curve fitting and the determination of the binding parameters, including the KD, using a 1:1 binding model.

B1: anti-CD38 nanobody 2F8 (Nb2F8) with C-terminal hexahistidine tag (VHH)
VHH: QVQLVESGGGSVQAGGSLRLSCAASGYTDSDYIMAWFRQAPGKEREVVATIYIGGTYIHYADSVKGRFTISRDNAENTVYLQMNNLKPEDTAMYYCAATKWRPFISTRAAEYNYWGQGTLVTVSS
notes: Produced in E. coli WK6 with a His6 tag and also in an untagged form; The flow cytometry used the His-tagged form (anti-His detection); also called sdAb 2F8
Kd [1]: 1.46 nM
Kd [2]: 0.73 nM
Kd [3]: 0.734 nM

B2: sdAb 2F8 conjugated to the bifunctional chelator DTPA (2F8-DTPA) (VHH)
VHH: QVQLVESGGGSVQAGGSLRLSCAASGYTDSDYIMAWFRQAPGKEREVVATIYIGGTYIHYADSVKGRFTISRDNAENTVYLQMNNLKPEDTAMYYCAATKWRPFISTRAAEYNYWGQGTLVTVSS
modifications: CHX-A''-DTPA conjugated to the free epsilon-amino groups of lysines (number and positions not stated)
notes: also called Nb2F8-DTPA conjugate
Kd [4]: 1.6 nM
koff [4]: 0.000412 s⁻¹
kon [4]: 258000 M⁻¹ s⁻¹

B3: ^111In-DTPA-Nb2F8 (VHH)
VHH: QVQLVESGGGSVQAGGSLRLSCAASGYTDSDYIMAWFRQAPGKEREVVATIYIGGTYIHYADSVKGRFTISRDNAENTVYLQMNNLKPEDTAMYYCAATKWRPFISTRAAEYNYWGQGTLVTVSS
modifications: CHX-A''-DTPA on lysine epsilon-amino groups (positions not stated), chelating Indium-111
Kd [5]: 16.7 nM

B4: Nb2F8-PNA1 conjugate (VHH)
VHH: QVQLVESGGGSVQAGGSLRLSCAASGYTDSDYIMAWFRQAPGKEREVVATIYIGGTYIHYADSVKGRFTISRDNAENTVYLQMNNLKPEDTAMYYCAATKWRPFISTRAAEYNYWGQGTLVTVSS
modifications: the C-terminal GGGSS is continued by the peptide nucleic acid a-g-t-c-t-g-g-a-t-g-t-a-g-t-c (SEQ ID NO: 15) and then E-K(DOTA)-AEEA-E-NH2
notes: Made by Sortase A ligation of PNA1 to Nb2F8-FL-SR-His6 and purified by reverse IMAC; also called nanobody 2F8 coupled with the PNA1
Kd [6]: 13.4 nM
